The values below come from PMC5368172.

Test [1] has as its target SCM on the surface of S. canis strain G361 (Streptococcus canis (endogenous in strain G361)). The test is described as follows: radioligand binding; iodinated IgG or iodinated plasminogen incubated with whole S. canis bacteria, gamma-counting, percent bound; inhibition with 1.0 μM non-labeled IgG or plasminogen.
Test [2] has as its target HRP-conjugated human IgG (human). The test is described as follows: ELISA; competitive: wells coated with 5 μg full length SCM; HRP-conjugated human IgG (1:200) pre-incubated 15 min with 10 μg SCM, FOG or KO173225, then added for 2 h.

human plasminogen (natural protein): in test [1], the percent bound was determined as 37.1% and the percent bound with excess non-radiolabeled plasminogen was 23.3%.

“recombinant SCM, the M protein of Streptococcus canis (natural protein)” displayed an IgG binding to immobilized SCM left after pre-incubation of IgG with 10 μg SCM, percent in test [2] of 20%.
